pIC50: −log10 of the molar value.

Nine sequences from the Immune Epitope Database (IEDB) can be followed below.

One assay has as its target HLA-A*02:01. The experiment in a line: IEDB peptide-MHC binding, purified MHC/competitive/radioactivity; ≥ and ≤ were set here for values at or beyond the usual limits of such assays. The note with it: source organism: Hepacivirus hominis.
In the case of VLAALAAYCL, the pIC50 is 7.00.

In a further assay the target is HLA-A*03:01. Described as above. To be noted: source organism: Hepacivirus hominis.
For AVCTRGVAK, the negative logarithm of the IC50 (pIC50) is 6.41.

Consider HLHAPTGSGK, for which the negative-log IC50 (pIC50) is 7.77.

In the case of HLIFCHSKK, the pIC50 is 6.40.

For the sequence HLIFCHSKKK, the pIC50 was 6.41.

Turning to RLLAPITAY, the pIC50 was 8.40.

TLHGPTPLLY: the negative logarithm of the IC50 (pIC50) was 6.95.

As for WMNSTGFTK, the negative logarithm of the IC50 (pIC50) was 6.72.

A further assay deals with HLA-A*11:01. The assay is described as above. To be noted: source organism: Hepacivirus hominis.
Turning to SVPAEILRK, the negative-log IC50 (pIC50) was 7.89.
